Experimental data as given in US20200249244A1 (PROTHENA BIOSCIENCES, published 2020).
Values joined by “and” are separate entries in the source; they are usually repeats but may differ in a detail not shown here. Equal values may be shown once. Values belong to the binder of their own block, whether it stands above or below them.

Columns and labels:
[1] = molecular target: misfolded TTR in plasma of ATTR patients (human, UniProt P02766 21-147); assay: MSD ECL competition: m14G8 spiked into plasma of 12 h-ATTR patients, free mis-TTR captured by biotinylated 9D5 (competitor), Dako polyclonal reporter
[2] = molecular target: T1, recombinant human TTR, denatured (misfolded) (human, UniProt P02766 21-147); assay: SPR Biacore T200, antibody captured by anti-mouse antibody, Gu-hTTR 0.4-100 nM as analyte, 1:1 fit
Procedure: (§1) Anti-Human antibody was immobilized on flow cells 1 and 2, Anti-Mouse antibody was immobilized on flow cells 3 and 4 on sensor chip CM3 (GE Healthcare Life Sciences) via amine coupling, chimeric and murine 18C5 antibodies (ligand) were captured to a level to ensure a maximum binding of analyte of 50 RU (approximately 250RU of ligand binding). Various concentrations of Gu-TTR (ranging from 0.4 nM to 100 nM) were passed over the captured ligand at 50 μL/min in running buffer (HBS+0.05% P-20, 1 mg/mL BSA, 50 mM Gu-HCl) for 300s association time and 900s dissociation time. Regeneration of the chip surface was accomplished by 2 short injections of 3M Magnesium Chloride or 2 short injections of 10 mM Glycine-HCl at pH 1.7. Data was blank subtracted to both a sensor not containing ligand and 0 nM analyte concentration. Analysis was performed using a global 1:1 fit with Biacore Evaluation software (v3.0) with bulk refractive index set to zero RU.

[3] = molecular target: T1, recombinant human TTR, denatured …; assay: SPR Biacore T200, antibody captured by anti-mouse antibody, Gu-hTTR as analyte, 1:1 fit
Procedure: (§2) Anti-Mouse antibody was immobilized on sensor chip CM3 (GE Healthcare Life Sciences) via amine coupling, and murine antibodies (ligand) were captured to a level to ensure a maximum binding of analyte of 50 RU (approximately 250RU of ligand binding). Various concentrations of Gu-TTR (ranging from 0.4 nM to 100 nM) were passed over the captured ligand at 50 μL/min in running buffer (HBS+0.05% P-20, 1 mg/mL BSA, 50 mM Gu-HCl) for 300 s association time and 900 s dissociation time. Regeneration of the chip surface was accomplished by 2 short injections of 10 mM Glycine-HCl at pH 1.7. Concentrations of Gu-cTTR used ranged from 1-1000 nM, while concentrations of Human TTR tetramer ranged from 10 nM to 10,000 nM. Data was blank subtracted to both a sensor not containing ligand and 0 nM analyte concentration. Analysis was performed using a global 1:1 fit with Biacore Evaluation software (v3.0) with bulk refractive index set to zero RU.

[4] = molecular target: Cynomolgus TTR denatured in 6 M Guanidine Hydrochloride (Cynomolgus, UniProt Q8HXW1 21-147); assay: SPR Biacore T200, antibody captured by anti-mouse antibody, Gu-cTTR 1-1000 nM as analyte, 1:1 fit
Procedure: as §2

[5] = molecular target: native tetrameric human TTR (human, UniProt P02766 21-147); assay: SPR Biacore T200, antibody captured by anti-mouse antibody, human TTR tetramer 10-10,000 nM as analyte, 1:1 fit
Procedure: as §2

[6] = molecular target: T1, recombinant human TTR, denatured …; assay: SPR Biacore T200, antibody captured by anti-human antibody, Gu-hTTR 0.4-100 nM as analyte, 1:1 fit
Procedure: as §1

- EC50 [1]: 343 nM and ~50 µg/mL
B1: Mouse 14G8 (antibody, V domains shown)
VH: EVKLVESGGGLVQPGGSLKLSCAASGFTFSSYTMSWVRQTPEKRLELVAEINNSGDTTYYPDTVKGRFTISRDNAKNTLYLQMSSLKSEDTAMYYCARHYYYGGGYGGWFFDVWGTGTTVTVSS
VL: DIVMTQAAPSVPVTPGESVSISCRSNKSLLHSNGNTYLYWFLQRPGQSPQLLIYRVSNLASGVPDRFSGSGSGTAFTLRISRVEAEDVGVYYCMQHLEYPLTFGAGTKLELKR

- Kd [2]: 2.2 nM
- koff [2]: 0.00021 s⁻¹
- kon [2]: 99000 M⁻¹ s⁻¹
- Kd [3]: 5.9 nM
- koff [3]: 0.00062 s⁻¹
- kon [3]: 110000 M⁻¹ s⁻¹
- koff [4]: 0.00092 s⁻¹
- kon [4]: 100000 M⁻¹ s⁻¹
- koff [5]: 0.00022 s⁻¹
- kon [5]: 2200 M⁻¹ s⁻¹
B2: mouse 18C5 antibody (antibody, V domains shown)
VH: EVKLLESGGGLVQPGGSLNLSCVASGFDFSRFWMSWARQAPGRGQEWIGEINPGSSTINYTPSLKDKFIISRDNAKNTLFLQMSKVRSEDSALYYCARLGYGNYGWALDYWGQGTSVTVSS
VL: DVLMTQTPLSLPVSLGDQASISCRSSQSIVDSNGNTYLEWYLQKPGQSPKLLIYKVSNRFSGVPDRFSGSGSGTDFTLKISRVEAEDLGIYYCFQGSHVPLTFGAGTKLELK
notes: Used unlabelled (Biacore, Western blot), biotinylated (capture) or SULFO-TAG labelled (reporter) in the MSD assays; also called murine 18C5; m18C5

- Kd [6]: 1.8 nM
- koff [6]: 0.00016 s⁻¹
- kon [6]: 130000 M⁻¹ s⁻¹
B3: chimeric 18C5 antibody (antibody, human IgG1, kappa, V domains shown)
VH: EVKLLESGGGLVQPGGSLNLSCVASGFDFSRFWMSWARQAPGRGQEWIGEINPGSSTINYTPSLKDKFIISRDNAKNTLFLQMSKVRSEDSALYYCARLGYGNYGWALDYWGQGTSVTVSS
VL: DVLMTQTPLSLPVSLGDQASISCRSSQSIVDSNGNTYLEWYLQKPGQSPKLLIYKVSNRFSGVPDRFSGSGSGTDFTLKISRVEAEDLGIYYCFQGSHVPLTFGAGTKLELKR
notes: Mouse 18C5 variable regions on human IgG1/kappa constant regions, expressed in CHO cells
